Consider 9 substances from paper PMC11176775.

Assay [1] concerns the target Apurinic/apyrimidinic-endonuclease 1 (UniProt P27695). Description: SPR; Biacore X-100, 25 °C; GST-tag polβ or APE1 immobilised on CM5 chip (EDC/NHS, 10 mM sodium acetate pH 4.0), his-tag LIG1 or LIGIIIα proteins as analytes; 10 mM Hepes pH 7.4, 150 mM NaCl, 3 mM EDTA, 0.005% P20; 1:1 (Langmuir) model; polβ truncated mutants (Fig. S2) tested likewise, orientation not given. On the technique in general: SPR reads the build-up and loss of mass on a sensor chip optically.

For assay [2], the target named is GST-tag DNA polymerase β, full-length (1–335 amino acids) (UniProt P06746). The description is as above.
Assay [3] addresses Polβ N-terminal (1–92 amino acids) (UniProt P06746). Described as above.
The target of assay [4] is Polβ C-terminal (92–335 amino acids) (UniProt P06746). The description is as above.
Assay [5] has as its target Polβ C-terminal (92–335 amino acids), as used in SPR (UniProt P06746). Description: SPR; Supplementary Figures 2 and 3; partner immobilised on the CM5 chip not given; Biacore X-100, 25 °C; 10 mM Hepes pH 7.4, 150 mM NaCl, 3 mM EDTA, 0.005% surfactant P20; 1:1 (Langmuir) fit.
Assay [6] concerns the target GST-tag APE1 full-length (apurinic/apyrimidinic-endonuclease 1) (UniProt P27695). The experiment in a line: SPR; GST-tag polβ or APE1 immobilised on CM5 chip (EDC/NHS), his-tag LIG1 or LIGIIIα passed as analyte; Biacore X-100, 25 °C; 10 mM Hepes pH 7.4, 150 mM NaCl, 3 mM EDTA, 0.005% surfactant P20; 1:1 (Langmuir) fit.
For assay [7], the target named is GST-tag polβ full-length (DNA polymerase β, 1–335 amino acids) (UniProt P06746). Described as above.
Assay [8] shares this target. The experiment in a line: SPR; Supplementary Figures 2 and 3; partner immobilised on the CM5 chip not given; Biacore X-100, 25 °C; 10 mM Hepes pH 7.4, 150 mM NaCl, 3 mM EDTA, 0.005% surfactant P20; 1:1 (Langmuir) fit.
Assay [9] concerns the target His-tag LIGIIIα full-length (DNA ligase IIIα, 1–922 amino acids). Described as above.

Apurinic/apyrimidinic-endonuclease 1, sequence (P27695 whole entry, the tested form may be a part): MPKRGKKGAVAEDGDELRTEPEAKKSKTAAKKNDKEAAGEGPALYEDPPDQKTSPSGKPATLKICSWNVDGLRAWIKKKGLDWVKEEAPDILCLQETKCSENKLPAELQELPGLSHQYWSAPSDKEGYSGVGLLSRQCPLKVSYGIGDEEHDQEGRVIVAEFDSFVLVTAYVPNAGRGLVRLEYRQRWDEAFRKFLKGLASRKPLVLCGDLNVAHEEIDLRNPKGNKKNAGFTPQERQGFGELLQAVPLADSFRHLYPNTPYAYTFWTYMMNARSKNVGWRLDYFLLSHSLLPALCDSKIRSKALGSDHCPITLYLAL
GST-tag APE1 full-length (apurinic/apyrimidinic-endonuclease 1), sequence (P27695 whole entry, the tested form may be a part): as above
poly (ADP-ribose) polymerase 1 (PARP1), his-tag, sequence (P09874 whole entry): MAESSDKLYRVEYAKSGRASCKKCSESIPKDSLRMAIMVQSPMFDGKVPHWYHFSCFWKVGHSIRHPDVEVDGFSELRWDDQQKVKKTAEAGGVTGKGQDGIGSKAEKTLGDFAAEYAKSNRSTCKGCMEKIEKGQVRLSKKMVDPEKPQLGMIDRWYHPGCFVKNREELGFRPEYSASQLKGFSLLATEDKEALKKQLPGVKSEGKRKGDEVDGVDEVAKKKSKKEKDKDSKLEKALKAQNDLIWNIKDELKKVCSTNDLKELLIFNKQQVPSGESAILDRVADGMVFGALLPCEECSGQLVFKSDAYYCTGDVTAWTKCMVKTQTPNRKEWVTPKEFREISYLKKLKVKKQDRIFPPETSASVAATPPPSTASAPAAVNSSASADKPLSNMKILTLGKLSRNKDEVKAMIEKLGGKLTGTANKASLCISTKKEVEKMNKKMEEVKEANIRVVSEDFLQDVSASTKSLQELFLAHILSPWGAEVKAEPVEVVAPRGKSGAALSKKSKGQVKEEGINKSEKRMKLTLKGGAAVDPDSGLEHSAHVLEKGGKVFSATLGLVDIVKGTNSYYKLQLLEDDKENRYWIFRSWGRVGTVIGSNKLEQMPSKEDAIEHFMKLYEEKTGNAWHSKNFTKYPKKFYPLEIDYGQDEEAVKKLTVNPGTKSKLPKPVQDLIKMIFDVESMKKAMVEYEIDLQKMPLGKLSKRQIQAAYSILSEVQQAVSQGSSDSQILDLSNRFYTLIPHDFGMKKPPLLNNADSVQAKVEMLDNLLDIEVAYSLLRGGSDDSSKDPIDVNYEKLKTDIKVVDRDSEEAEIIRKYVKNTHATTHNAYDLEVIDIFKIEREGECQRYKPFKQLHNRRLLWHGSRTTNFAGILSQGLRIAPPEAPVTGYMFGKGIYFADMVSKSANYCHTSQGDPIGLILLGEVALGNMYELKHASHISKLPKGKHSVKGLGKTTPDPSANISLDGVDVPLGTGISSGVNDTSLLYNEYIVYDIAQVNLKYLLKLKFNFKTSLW
X-ray repair crosscomplementing protein 1 (XRCC1), his-tag, sequence (P18887 whole entry): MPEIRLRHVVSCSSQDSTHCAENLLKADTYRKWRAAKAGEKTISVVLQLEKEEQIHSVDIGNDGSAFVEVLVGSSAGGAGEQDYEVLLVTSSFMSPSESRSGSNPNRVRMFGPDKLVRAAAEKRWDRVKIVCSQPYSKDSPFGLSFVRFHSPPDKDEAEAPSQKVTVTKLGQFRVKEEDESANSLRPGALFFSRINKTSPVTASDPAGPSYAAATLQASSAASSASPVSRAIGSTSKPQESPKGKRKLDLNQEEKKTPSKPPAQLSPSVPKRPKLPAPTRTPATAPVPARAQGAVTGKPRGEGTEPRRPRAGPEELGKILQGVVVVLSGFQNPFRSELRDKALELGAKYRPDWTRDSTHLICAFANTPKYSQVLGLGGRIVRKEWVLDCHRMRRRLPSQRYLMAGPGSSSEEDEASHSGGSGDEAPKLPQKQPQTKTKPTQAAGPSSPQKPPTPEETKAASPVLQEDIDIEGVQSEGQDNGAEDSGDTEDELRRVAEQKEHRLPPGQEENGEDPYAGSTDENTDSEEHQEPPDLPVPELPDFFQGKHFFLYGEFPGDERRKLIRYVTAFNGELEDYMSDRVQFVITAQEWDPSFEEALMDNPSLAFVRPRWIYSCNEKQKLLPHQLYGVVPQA

With “DNA ligase IIIα full-length (1–922 amino acids) (enzyme)”, the Kd (in general, the equilibrium constant for the complex coming apart) was determined as 3.3 nM in [1], 7 nM in assay [2] and 32 nM in [3]. This substance returned a fold reduction of binding against the full-length proteins in assay [4] of 500 fold.

As to “His-tag LIG1 full-length (DNA ligase 1, 1–919 amino acids) (from UniProt P18858 1-919) (enzyme)”, in [5], the Kd came out at 740 nM.

Substance “His-tag LIGIIIα full-length (DNA ligase IIIα, 1–922 amino acids) (enzyme)” displayed a Kd in assay [5] of 500 nM. This Kd and that of the substance before are within 1.5-fold of each other. The substance “LIGIIIα△BRCT (1–755 amino acids), LIGIIIα lacking the BRCT domain (domain or fragment)” returned a Kd in assay [6] of 1050 nM. For “LIGIIIα△ZnF (170–922 amino acids), LIGIIIα lacking the zinc-finger domain (domain or fragment)”, the Kd amounted to 4.9 nM in assay [6] and 27 nM in [7]. Consider “LIGIIIα▵BRCT (1–755 amino acids) (domain or fragment)”, for which, in [1], the fold difference in KD against LIGIIIα▵ZnF came out at 1000 fold. Also, in assay [2], the equilibrium dissociation constant (Kd) was determined as 520 nM. In the case of “LIGIIIα▵ZnF (170–922 amino acids) (domain or fragment)”, the Kd in assay [2] was 30 nM. In [8], “X-ray repair crosscomplementing protein 1 (XRCC1), his-tag (from UniProt P18887 1-633) (natural protein; other documents disagree on this pair)” returned a Kd of 10 nM. In [9], “poly (ADP-ribose) polymerase 1 (PARP1), his-tag (from UniProt P09874 1-1014) (enzyme)” displayed a Kd of 20 nM.
